Our source for the Ki, binding result and IC50 values is patent US20170002081A1 (TRANSGENE S A, published 2017).

Test [1] deals with T1, human CSF-1R, full length, on cells (human, UniProt P07333 20-972).
T1 construct: also called cell-surface CSF-1R; B4-800-5 cells
Briefly: displacement of 1.5 nM ^125I-H27K15 (competitor) on EL4-CSF-1R cells, Cheng-Prusoff.

The target of test [2] is T2, VEGFR1-Fc-6×his (R&D Systems cat. 321-FL-050) (human, UniProt P17948 27-758, limits assumed).
T2 construct: extracellular domain; Bought; also called soluble VEGFR-1
T2 sequence (P17948 27-758 limits assumed): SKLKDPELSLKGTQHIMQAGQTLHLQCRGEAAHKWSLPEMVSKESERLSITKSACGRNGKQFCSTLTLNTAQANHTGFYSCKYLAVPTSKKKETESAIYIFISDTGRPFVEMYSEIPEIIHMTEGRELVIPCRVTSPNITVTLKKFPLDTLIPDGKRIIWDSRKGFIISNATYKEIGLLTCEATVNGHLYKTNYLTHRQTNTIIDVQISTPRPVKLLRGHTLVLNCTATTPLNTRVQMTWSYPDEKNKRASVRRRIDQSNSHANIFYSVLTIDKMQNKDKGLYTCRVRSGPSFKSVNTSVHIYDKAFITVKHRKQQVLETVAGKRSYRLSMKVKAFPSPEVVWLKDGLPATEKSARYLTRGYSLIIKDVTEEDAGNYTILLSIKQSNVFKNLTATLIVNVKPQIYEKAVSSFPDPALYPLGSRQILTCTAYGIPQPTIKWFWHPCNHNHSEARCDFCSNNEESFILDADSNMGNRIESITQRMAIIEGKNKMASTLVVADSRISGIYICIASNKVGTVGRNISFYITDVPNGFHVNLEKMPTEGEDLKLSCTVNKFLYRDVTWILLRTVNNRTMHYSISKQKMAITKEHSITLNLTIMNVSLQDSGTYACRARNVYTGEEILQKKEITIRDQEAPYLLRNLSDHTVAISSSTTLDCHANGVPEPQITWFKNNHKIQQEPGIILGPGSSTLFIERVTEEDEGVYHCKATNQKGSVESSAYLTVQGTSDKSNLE
The experiment in a line: ELISA, 300 ng coated receptor per well. The method, then:
(§1) 13382) was also incubated with wells coated with receptor-human Fc fusion proteins Flt-3-Fc-, PDGFRβ-Fc, VEGFR2-Fc, VEGFR1-Fc, while PDGFRα- and SCFR-coated wells were incubated with respectively anti-PDGF-Rα (mouse IgG1, R&Dsystems cat. MAB322) and anti-SCF-R goat IgG (R&DSystems cat. AF332). […] Following revelation with tetramethylbenzidine (Sigma, cat. T8665) (0.1 mg/ml in 0.05 M sodium acetate, 0.05 M citric acid, H₂O₂ 1/7000), absorbance was measured at 450 nm and corrected by subtraction of absorbance at 540 nm using a spectrophotometer (Berthold, Tristar LB941).
On the technique in general: ELISA stands for enzyme-linked immunosorbent assay.

Test [3] has as its target T3, Flt-3-Fc-6×his (R&D Systems cat. 368-ST/CF) (human, UniProt P36888 27-543, limits assumed).
T3 construct: extracellular domain; Bought; also called soluble Flt-3
Briefly: ELISA, 300 ng coated receptor per well. How it is done:
as §1

For test [4], the target named is T4, vascular endothelial growth factor receptor (VEGFR)2-Fc-6×his (R&D Systems cat. 357-KD/CF) (human, UniProt P35968 20-764, limits assumed).
T4 construct: extracellular domain; Bought; also called soluble VEGFR-2
T4 sequence (P35968 20-764 limits assumed): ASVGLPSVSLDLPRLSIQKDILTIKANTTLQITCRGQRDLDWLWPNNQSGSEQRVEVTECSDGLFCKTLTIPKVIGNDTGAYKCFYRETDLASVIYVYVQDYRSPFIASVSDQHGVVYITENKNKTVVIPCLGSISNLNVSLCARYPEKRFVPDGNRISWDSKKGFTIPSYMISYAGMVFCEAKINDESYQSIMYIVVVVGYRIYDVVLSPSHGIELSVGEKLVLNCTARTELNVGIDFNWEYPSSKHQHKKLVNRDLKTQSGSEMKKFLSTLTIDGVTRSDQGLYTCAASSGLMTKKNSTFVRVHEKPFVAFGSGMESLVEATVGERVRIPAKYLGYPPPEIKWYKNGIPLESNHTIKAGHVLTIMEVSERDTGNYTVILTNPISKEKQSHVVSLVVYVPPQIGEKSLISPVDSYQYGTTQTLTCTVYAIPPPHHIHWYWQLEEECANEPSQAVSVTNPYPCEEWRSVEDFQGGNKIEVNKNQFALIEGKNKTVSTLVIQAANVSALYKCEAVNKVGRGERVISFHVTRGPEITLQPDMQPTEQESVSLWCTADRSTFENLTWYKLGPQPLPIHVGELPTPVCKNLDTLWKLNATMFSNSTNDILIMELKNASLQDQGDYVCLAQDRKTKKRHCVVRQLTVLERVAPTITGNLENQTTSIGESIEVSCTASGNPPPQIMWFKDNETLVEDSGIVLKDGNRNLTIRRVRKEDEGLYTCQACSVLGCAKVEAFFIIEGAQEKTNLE
The experiment in a line: ELISA, 300 ng coated receptor per well. How it is done: as §1

Test [5] addresses T5, PDGFRβ-Fc-6×his (R&D Systems cat. 385-PR/CF) (human, UniProt P09619 33-532, limits assumed).
T5 construct: extracellular domain; Bought; also called soluble PDGFRβ
Briefly: ELISA, 300 ng coated receptor per well. The method, then: as §1

Test [6] deals with T6, human SCFR ECD (R&D Systems cat. 332-SR/CF) (human, UniProt P10721 26-524).
T6 construct: extracellular domain; Bought; also called SCFR (c-kit)
Briefly: ELISA, 300 ng coated receptor per well. The method, then: as §1

In test [7] the target is T7, PDGFRα ECD (R&D Systems cat. 322-PR/CF) (UniProt P16234 24-528, limits assumed).
T7 construct: extracellular domain; Bought; also called soluble PDGFRα
T7 sequence (P16234 24-528 limits assumed): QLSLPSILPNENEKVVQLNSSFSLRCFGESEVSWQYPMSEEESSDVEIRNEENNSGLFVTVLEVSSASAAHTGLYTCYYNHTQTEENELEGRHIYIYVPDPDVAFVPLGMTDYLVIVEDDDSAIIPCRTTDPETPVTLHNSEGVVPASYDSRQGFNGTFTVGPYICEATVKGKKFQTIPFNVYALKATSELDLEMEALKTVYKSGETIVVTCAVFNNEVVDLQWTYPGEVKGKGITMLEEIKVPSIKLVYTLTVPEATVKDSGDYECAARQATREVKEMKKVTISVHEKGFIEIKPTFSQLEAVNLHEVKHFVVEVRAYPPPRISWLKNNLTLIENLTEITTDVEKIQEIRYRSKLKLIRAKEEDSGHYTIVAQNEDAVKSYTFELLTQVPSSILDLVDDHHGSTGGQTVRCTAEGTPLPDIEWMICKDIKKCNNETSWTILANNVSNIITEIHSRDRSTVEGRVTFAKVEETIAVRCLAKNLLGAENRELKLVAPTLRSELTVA
The experiment in a line: ELISA, 300 ng coated receptor per well. How it is done: as §1

Test [8] has as its target T1, human CSF-1R, full length, on cells. Briefly: displacement of 1.5 nM ^125I-H27K15 (competitor) on EL4-CSF-1R cells.
Test [9] concerns the target T8, construct pTG18000 (human and murine D1 subdomains combined, Histidine tag) (Homo sapiens (Human), UniProt P07333 21-298).
T8 chain: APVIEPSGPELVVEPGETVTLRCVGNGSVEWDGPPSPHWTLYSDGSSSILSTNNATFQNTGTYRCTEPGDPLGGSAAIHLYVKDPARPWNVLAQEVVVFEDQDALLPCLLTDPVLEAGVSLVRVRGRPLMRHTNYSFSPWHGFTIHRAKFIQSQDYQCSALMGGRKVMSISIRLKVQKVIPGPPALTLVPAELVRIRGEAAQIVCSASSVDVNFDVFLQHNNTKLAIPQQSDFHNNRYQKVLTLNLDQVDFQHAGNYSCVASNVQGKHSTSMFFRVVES
Briefly: ELISA: His-tagged construct captured from CHO supernatant on anti-His tag coated wells; biotinylated antibody; streptavidin-HRP. How it is done:
(§2) In order to map the mAb binding sites on CSF-1R, truncated mutants of human CSF-1R and chimeras between human and murine D1-D3 CSF-1R fused to Histidine tags were constructed (see FIGS. 19 and 20 for details). These constructs were expressed as secreted proteins using CHO cells. Expression of constructs was checked by immunoblot analysis using an anti-His tag antibody for detection. All constructs were captured on ELISA plate by incubating CHO culture supernatant into wells coated with an Anti-His tag antibody. Antibodies were biotinylated using Biotin-NHS (Sigma ref B3295-10 MG). Biotinylated antibodies were added to each well and binding was detected with streptavidin-HRP.

The target of test [10] is T9, pTG17983.
T9 construct: secreted by CHO cells; also called human D1-D2-D3 of CSF-1R, Histidine tag
T9 single secreted chain: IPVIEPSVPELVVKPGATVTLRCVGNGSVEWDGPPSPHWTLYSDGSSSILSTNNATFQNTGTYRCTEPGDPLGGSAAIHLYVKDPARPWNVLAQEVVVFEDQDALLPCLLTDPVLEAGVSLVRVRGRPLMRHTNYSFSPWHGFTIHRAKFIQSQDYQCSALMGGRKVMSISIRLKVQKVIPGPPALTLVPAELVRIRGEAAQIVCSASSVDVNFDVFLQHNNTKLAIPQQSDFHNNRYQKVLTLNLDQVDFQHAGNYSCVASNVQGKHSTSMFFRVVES
The test is described as above. The method, then: as §2

For test [11], the target named is T10, pTG18036.
T10 construct: truncated mutant secreted by CHO cells; also called human D1 and D2 of CSF-1R, Histidine tag
T10 single secreted chain: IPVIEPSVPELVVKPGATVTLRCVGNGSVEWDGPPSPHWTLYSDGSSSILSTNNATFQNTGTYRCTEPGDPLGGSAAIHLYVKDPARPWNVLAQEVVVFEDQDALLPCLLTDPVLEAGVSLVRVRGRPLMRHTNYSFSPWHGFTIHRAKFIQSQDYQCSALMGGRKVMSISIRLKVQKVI
Described as above. How it is done:
as §2

In test [12] the target is T11, CSF-1R20-512-Fc (R&D Systems cat. 329-MR) (human, UniProt P07333 20-512).
T11 construct: Bought; also called CSF-1R1-512:Fc; soluble human CSF-1R; not shown: Fc region of a human IgG1
The experiment in a line: ELISA: coated human CSF1 1-444 or PBS; Fc-D1-D5 human CSF-1R 0.125 µg/mL; anti-human IgG-Fc-HRP.

Test [13] deals with T12, EGFR:Fc (human, UniProt P00533 25-645).
T12 construct: also called soluble form of the EGFR fused to human IgG1 Fc (R&D Systems); Soluble EGFR; not shown: human IgG1 Fc
Briefly: Western blot, native conditions, 100 ng soluble receptor. From the text:
A soluble form of the EGFR fused to human IgG₁ Fc (R&D Systems) was used as a negative control.

T5 sequence (P09619 33-532 limits assumed): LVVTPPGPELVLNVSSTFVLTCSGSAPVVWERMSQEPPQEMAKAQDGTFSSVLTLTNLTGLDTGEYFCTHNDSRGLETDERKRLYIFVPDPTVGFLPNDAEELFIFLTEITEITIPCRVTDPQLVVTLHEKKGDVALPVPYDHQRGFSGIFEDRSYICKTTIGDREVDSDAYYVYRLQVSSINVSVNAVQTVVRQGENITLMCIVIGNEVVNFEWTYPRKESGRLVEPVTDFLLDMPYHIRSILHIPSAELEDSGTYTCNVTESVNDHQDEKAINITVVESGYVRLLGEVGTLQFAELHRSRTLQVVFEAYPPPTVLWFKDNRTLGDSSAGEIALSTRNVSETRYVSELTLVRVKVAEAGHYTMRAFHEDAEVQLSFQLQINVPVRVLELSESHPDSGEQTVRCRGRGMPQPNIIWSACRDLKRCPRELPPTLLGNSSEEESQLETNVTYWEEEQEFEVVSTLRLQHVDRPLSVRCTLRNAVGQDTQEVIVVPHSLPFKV

B1: H19K12 (antibody, V domains shown)
VH: EVQLVESGGGLVQPGGSLKLSCAASGFTFSDAWMDWVRQSPEMGLEWVAEIRSKANNHATFYAESVKGRFTISRDDSKSSVYLQMNSLRAEDTGIYYCTRVKVGFDNWGQGTTLTVSS
VL: DIQMTQSPSSLSASVGDRVTITCRASENIYSNLAWYQQKDGKSPQLLVHAATNLADGVPSRFSGSGSGTQYSLTISSLQPEDFGSYYCQHFWGTPRTFGGGTKLEIKR
notes: Humanized human IgG1/kappa; also called hCXIIG6 variant H19K12
What is called Ki is a dissociation constant, usually derived from enzyme kinetics or from competition with a known ligand. A lower Ki goes with higher affinity. The IC50 is the concentration that gives 50% inhibition. A low value points to greater potency in that assay. In test [1], B1 displayed a Ki of 0.754 nM. Also, the binding result in [2], in test [3], in test [4], in test [5], in [6] and in test [7] was “no binding (tested: 500 ng/ml)” each time. This molecule returned an IC50 in test [8] of 1.28 nM.

B2: Chimeric CXIIG6 IgG1 (antibody)
heavy: not shown
light: DIQMTQSPASLSVSVGETVTITCRASENIYSNLAWYQQKQGKSPQLLVHAATNLADGVPSRFSGSGSGTQYSLKINSLQSEDFGSYYCQHFWGTPRTFGGGTKLEIKRTVAAPSVFIFPPSDEQLKSGTASVVCLLNNFYPREAKVQWKVDNALQSGNSQESVTEQDSKDSTYSLSSTLTLSKADYEKHKVYACEVTHQGLSSPVTKSFNRGEC
In [1], B2 returned a Ki of 0.874 nM. In addition, the binding result in [9] is on record as “no binding”; in test [10], “binds”; in test [11] it was “binds”. The molecule further returned an IC50 in test [8] of 1.48 nM.

B3: human CSF1 1-444 (Geneart) (ligand)
chain: EEVSEYCSHMIGSGHLQSLQRLIDSQMETSCQITFEFVDQEQLKDPVCYLKKAFLLVQDIMEDTMRFRDNTPNAIAIVQLQELSLRLKSCFTKDYEEHDKACVRTFYETPLQLLEKVKNVFNETKNLLDKDWNIFSKNCNNSFAECSSQDVVTKPDCNCLYPKAIPSSDPASVSPHQPLAPSMAPVAGLTWEDSEGTEGSSLLPGEQPLHTVDPGSAKQAPPRSTCQSFEPPETPVVKDSTIGGSPQPRPSVGAFNPGMEDILDSAMGTNWVPEEASGEASEIPVPQGTELSPSRPGGGSMQTEPARPSNFLSASSPLPASAKGQQPADVTGTALPRVGPVRPTGQDWNHTPQKTDHPSALLRDPPEPGSPRISSLRPQGLSNPSTLSAQPQLSRSHSSGSVLPLGELEGRR
modifications: biotinylated with Biotin-NHS in the assay of
notes: also called biotinylated CSF-1
Consider B3, for which the binding result in test [12] is listed as “binds”.

B4: mAb CXIIG6 (antibody, mouse IgG2a, kappa)
heavy: EVKLEESGGGLVQPGGSMKLSCAASGFTFSDAWMDWVRQSPEMGLEWVAEIRSKANNHATFYAESVKGRFTISRDDSKSSVYLQMNSLRPEDTGIYYCTRVKVGFDNWGQGTTLTVSSAKTTAPSVYPLAPVCGDTTGSSVTLGCLVKGYFPEPVTLTWNSGSLSSGVHTFPAVLQSDLYTLSSSVTVTSSTWPSQSITCNVAHPASSTKVDKKIEPRGPTIKPCPPCKCPAPNLLGGPSVFIFPPKIKDVLMISLSPIVTCVVVDVSEDDPDVQISWFVNNVEVHTAQTQTHREDYNSTLRVVSALPIQHQDWMSGKEFKCKVNNKDLPAPIERTISKPKGSVRAPQVYVLPPPEEEMTKKQVTLTCMVTDFMPEDIYVEWTNNGKTELNYKNTEPVLDSDGSYFMYSKLRVEKKNWVERNSYSCSVVHEGLHNHHTTKSFSRTPGK
light: DIQMTQSPASLSVSVGETVTITCRASENIYSNLAWYQQKQGKSPQLLVHAATNLADGVPSRFSGSGSGTQYSLKINSLQSEDFGSYYCQHFWGTPRTFGGGTKLEIKRADAAPTVSIFPPSSEQLTSGGASVVCFLNNFYPKDINVKWKIDGSERQNGVLNSWTDQDSKDSTYSMSSTLTLTKDEYERHNSYTCEATHKTSTSPIVKSFNRNEC
notes: Mouse IgG2a; Used as hybridoma supernatant or as purified recombinant antibody; also called CXIIG6 hybridoma supernatant; CXIIG6 SN
As for B4, the binding result in test [13] was “no binding”.
